Patent publication US20230068663A1

Key:
Test in all cases: flow cytometry, reporter cells, secondary antibody alone (blank)
LILRA2 = molecular target: LILRA2
[1] = molecular target: LILRA1 on reporter cells (extracellular domain) (UniProt O75019)
LILRA6 = molecular target: LILRA6
[2] = molecular target: LILRB2 chimeric receptor on LILRB2 reporter cells (extracellular domain of LILRB2 fused with transmembrane/intracellular domains of PILRb) (UniProt Q8N423)
LILRB1 = molecular target: LILRB1
LILRA4 = molecular target: LILRA4
LAIR1 on reporter cells = LAIR1 on reporter cells (UniProt Q6GTX8)
LILRB5 = molecular target: LILRB5
LILRA5 = molecular target: LILRA5
LILRB4 = molecular target: LILRB4
LILRB3 = molecular target: LILRB3
LILRA3 = molecular target: LILRA3
LILRA3, sequence (chain, as listed by the source limits assumed): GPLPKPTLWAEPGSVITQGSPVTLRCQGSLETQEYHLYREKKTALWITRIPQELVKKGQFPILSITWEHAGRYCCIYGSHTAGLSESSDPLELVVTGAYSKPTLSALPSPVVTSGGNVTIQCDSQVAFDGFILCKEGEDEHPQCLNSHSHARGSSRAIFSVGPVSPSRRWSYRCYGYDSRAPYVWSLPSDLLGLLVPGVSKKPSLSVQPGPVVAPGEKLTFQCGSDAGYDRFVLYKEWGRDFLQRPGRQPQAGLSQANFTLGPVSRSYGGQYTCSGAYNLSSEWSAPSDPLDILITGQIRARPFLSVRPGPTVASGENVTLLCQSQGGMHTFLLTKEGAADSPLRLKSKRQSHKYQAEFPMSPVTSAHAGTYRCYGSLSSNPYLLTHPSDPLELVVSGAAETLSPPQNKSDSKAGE

LILRA6, sequence (chain, as listed by the source limits assumed): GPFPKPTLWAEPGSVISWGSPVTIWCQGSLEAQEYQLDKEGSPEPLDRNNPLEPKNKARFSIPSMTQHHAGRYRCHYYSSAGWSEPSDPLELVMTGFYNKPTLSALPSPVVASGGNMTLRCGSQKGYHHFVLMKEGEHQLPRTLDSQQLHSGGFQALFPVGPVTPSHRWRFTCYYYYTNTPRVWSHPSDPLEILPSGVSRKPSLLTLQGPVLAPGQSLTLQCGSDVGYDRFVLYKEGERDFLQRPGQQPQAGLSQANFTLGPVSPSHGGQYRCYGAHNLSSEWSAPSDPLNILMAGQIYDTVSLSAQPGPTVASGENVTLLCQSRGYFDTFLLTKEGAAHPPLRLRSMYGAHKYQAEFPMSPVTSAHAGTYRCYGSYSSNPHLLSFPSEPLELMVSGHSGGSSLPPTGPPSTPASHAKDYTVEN
LILRA4, sequence (chain, as listed by the source limits assumed): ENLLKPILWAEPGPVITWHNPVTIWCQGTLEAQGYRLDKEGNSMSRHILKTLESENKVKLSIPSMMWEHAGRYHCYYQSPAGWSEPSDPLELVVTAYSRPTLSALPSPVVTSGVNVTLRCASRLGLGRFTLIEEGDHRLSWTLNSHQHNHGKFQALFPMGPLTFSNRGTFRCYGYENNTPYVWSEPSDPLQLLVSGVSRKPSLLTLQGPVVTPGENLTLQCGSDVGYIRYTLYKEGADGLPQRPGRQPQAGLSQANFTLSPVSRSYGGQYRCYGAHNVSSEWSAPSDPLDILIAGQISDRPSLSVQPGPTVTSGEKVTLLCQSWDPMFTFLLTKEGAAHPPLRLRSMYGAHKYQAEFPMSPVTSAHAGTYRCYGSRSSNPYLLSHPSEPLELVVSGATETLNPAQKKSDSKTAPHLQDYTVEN
LAIR1 on reporter cells, sequence (Q6GTX8 22-165 limits assumed): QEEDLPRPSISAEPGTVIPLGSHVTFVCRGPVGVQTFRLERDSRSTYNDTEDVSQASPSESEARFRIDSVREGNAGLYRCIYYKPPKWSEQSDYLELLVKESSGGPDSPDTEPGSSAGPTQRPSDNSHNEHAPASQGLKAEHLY
LILRA2, sequence (chain, as listed by the source limits assumed): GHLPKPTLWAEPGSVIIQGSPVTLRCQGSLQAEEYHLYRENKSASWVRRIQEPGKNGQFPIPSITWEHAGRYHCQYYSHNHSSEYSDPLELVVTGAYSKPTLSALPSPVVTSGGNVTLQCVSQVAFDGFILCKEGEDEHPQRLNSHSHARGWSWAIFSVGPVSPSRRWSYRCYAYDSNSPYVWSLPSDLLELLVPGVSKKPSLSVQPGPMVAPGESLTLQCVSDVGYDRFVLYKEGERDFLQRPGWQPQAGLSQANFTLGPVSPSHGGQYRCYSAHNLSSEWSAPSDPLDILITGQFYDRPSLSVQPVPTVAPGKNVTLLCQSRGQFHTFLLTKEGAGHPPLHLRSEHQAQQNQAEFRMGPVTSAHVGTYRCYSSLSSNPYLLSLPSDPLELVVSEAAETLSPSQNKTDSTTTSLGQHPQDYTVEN
LILRA1 on reporter cells (extracellular domain), sequence (O75019 17-461 limits assumed): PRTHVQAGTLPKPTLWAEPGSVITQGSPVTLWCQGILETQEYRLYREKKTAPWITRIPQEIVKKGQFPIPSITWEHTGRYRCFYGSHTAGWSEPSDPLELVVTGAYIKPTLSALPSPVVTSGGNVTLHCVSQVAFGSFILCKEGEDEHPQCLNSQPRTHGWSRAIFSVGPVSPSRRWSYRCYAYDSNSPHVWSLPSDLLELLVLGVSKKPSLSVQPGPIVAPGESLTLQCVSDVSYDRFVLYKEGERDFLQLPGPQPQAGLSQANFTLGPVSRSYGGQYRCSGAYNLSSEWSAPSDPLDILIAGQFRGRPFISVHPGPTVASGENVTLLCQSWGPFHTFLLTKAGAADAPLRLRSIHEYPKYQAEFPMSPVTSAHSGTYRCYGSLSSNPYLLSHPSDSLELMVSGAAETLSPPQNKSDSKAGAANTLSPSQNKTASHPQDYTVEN
LILRB1, sequence (chain, as listed by the source limits assumed): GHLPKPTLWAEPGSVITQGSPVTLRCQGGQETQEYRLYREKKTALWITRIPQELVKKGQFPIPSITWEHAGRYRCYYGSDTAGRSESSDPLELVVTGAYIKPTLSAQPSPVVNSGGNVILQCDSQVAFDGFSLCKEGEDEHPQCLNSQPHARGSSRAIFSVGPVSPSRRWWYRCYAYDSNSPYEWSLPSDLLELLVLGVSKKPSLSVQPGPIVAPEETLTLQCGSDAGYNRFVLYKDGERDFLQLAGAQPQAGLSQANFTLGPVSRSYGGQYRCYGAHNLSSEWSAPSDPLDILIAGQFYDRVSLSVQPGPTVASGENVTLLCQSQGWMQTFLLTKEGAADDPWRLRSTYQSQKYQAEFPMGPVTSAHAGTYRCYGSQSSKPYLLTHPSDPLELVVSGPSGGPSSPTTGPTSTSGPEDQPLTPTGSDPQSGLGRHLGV
LILRB5, sequence (chain, as listed by the source limits assumed): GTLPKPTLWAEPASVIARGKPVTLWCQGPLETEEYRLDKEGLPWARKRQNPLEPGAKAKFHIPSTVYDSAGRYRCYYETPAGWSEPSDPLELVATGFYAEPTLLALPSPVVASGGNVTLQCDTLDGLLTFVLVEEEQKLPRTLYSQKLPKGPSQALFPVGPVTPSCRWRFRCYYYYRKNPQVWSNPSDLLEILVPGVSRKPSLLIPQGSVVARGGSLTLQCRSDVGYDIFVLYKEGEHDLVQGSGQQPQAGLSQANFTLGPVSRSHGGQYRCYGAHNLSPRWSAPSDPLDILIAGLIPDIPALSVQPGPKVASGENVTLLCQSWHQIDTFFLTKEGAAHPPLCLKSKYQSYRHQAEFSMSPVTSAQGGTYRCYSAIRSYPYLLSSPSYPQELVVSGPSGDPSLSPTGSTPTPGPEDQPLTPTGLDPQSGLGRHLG
LILRA5, sequence (chain, as listed by the source limits assumed): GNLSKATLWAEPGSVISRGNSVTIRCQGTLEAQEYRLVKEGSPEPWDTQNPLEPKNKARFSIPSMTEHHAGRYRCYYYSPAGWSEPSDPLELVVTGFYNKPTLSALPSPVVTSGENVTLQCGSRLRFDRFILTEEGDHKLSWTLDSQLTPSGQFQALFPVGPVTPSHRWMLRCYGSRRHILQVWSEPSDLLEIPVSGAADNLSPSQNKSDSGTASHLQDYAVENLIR

MFI (LILRA2): 9 | MFI [1]: 10 | MFI (LILRA6): 10 | MFI [2]: 10 | MFI (LILRB1): 9 | MFI (LILRA4): 10 | MFI (LAIR1 on reporter cells): 23 | MFI (LILRB5): 11 | MFI (LILRA5): 11 | MFI (LILRB4): 13 | MFI (LILRB3): 9 | MFI (LILRA3): 10
Substance: 2nd Ab (antibody)
